Assay results from US20210238276A1 (INTEGRAL MOLECULAR, published 2021).

What was measured:
Assay in all cases: flow cytometry, alanine-scan library in HEK-293T, with cytochalasin B
[1] = molecular target: T1, hsGLUT4 M158A (human, UniProt P14672 1-509)
T1 sequence: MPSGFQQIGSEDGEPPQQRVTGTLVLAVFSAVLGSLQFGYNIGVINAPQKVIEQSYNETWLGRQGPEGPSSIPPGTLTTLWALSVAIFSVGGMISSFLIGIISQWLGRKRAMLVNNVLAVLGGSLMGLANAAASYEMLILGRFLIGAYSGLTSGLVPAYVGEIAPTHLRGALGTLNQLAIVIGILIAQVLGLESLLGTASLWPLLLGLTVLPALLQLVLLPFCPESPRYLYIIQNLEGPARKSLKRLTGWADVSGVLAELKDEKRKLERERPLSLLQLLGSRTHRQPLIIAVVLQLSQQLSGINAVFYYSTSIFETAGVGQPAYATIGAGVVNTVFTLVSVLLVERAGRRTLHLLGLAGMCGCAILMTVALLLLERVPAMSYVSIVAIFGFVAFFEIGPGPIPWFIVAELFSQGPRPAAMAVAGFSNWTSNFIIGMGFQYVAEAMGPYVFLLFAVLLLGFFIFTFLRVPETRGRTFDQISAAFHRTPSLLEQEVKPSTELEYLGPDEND
Procedure, shortened: (§1)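 HEK-293T cells expressing individual GLUT4 alanine mutants were stained 48 h post-transfection with anti-GLUT4 scFv MAbs (2 μg/ml), then biotinylated secondary and streptavidin-PerCP, and read by high-throughput flow cytometry. Where used, cytochalasin B (10 uM final) was given for 30 min before and during primary antibody staining.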

[2] = molecular target: T2, hsGLUT4 F307A (human, UniProt P14672 1-509)
T2 sequence: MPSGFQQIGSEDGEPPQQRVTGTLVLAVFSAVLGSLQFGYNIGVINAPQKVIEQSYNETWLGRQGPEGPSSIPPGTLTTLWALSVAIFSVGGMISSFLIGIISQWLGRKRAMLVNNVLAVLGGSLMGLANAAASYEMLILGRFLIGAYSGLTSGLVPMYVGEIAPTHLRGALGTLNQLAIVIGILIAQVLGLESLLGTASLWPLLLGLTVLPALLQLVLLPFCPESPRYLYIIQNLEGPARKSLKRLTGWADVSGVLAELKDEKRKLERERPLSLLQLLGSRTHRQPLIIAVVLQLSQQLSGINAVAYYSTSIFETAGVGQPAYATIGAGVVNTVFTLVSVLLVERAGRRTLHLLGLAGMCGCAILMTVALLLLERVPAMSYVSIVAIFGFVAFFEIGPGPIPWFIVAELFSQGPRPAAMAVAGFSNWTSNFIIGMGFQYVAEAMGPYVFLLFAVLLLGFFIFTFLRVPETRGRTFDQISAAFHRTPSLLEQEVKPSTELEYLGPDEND
Procedure, shortened: as §1

[3] = molecular target: T3, hsGLUT4 S310A (human, UniProt P14672 1-509)
T3 sequence: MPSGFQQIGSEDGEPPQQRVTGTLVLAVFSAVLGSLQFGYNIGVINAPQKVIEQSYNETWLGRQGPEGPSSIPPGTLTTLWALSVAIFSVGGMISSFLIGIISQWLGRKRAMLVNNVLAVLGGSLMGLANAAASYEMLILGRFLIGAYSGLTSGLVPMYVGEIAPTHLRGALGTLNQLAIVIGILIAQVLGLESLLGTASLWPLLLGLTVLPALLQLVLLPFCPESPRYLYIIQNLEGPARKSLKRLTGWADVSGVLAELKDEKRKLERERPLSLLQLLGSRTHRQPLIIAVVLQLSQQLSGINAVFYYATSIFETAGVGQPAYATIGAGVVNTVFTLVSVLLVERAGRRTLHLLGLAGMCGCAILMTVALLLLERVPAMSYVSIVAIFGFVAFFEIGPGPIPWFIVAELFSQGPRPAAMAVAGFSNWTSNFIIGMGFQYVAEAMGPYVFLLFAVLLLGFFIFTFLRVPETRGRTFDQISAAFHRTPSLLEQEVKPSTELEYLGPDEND
Procedure, shortened: as §1

[4] = molecular target: T4, hsGLUT4 G446A (human, UniProt P14672 1-509)
T4 sequence: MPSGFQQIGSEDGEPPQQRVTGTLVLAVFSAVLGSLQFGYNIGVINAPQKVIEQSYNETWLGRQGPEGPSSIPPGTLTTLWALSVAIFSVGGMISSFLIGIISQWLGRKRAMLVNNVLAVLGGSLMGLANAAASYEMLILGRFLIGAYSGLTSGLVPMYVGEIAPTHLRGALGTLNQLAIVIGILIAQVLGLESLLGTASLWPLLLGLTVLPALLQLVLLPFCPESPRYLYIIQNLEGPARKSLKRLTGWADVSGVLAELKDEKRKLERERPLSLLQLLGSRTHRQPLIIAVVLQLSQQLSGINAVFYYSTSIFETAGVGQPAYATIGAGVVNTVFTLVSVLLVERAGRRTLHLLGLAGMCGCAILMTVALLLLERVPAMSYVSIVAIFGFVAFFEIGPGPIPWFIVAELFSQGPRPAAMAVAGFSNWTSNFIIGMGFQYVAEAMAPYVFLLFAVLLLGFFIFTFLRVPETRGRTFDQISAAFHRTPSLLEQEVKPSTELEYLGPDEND
Procedure, shortened: as §1

- % of binding to wild type GLUT4 [1]: 85%
- % of binding to wild type GLUT4 [2]: 22%
- % of binding to wild type GLUT4 [3]: 20%
- % of binding to wild type GLUT4 [4]: 43%
B1: AB102 (Fc fusion)
scFv: ALTQPSSVSANLGGTVKITCSGGGSYGYGWYQQKSPGSAPVTVIYSNDQRPSDIPSRFSGSKSGSTATLTITGVRAEDEAIYYCGSTDSDYVGIFGAGTTLTVLGQSSRSSGGGGSSGGGGSAVTLDESGGGLQTPGGTLSLVCKASGFDFSSYATIWVRQAPGKGLEWVAGISGTGTGSSTGYAPAVKGRATISRDNGQSTVRLQLNNLRAEDTGSYFCAKSTGYGDSWIYPDSIDAWGHGTEVIVSS
notes: also called MAb AB102; not shown: Fc fragment of human IgG1, cloned in frame with the scFv
